According to patent US20020037538A1, “Compositions, kits, and methods for identification, assessment, prevention, and therapy of psoriasis” (priority 2000, published 2002):

How the values were obtained:
psoriasis patients = settings: Trepicchio et al. (1999); cited from earlier work
psoriatic plaque = assay: Psoriasis Severity Index (PSI) score at the lesion biopsy site during treatment (Example 3); format: in vivo, human; settings: for PSI score: seen at weeks 8 and 12
Experimental: Three subjects with extensive psoriasis (>10% body surface area affected) were treated with […] of rhIL-11 subcutaneously every day for 8 weeks (Trepicchio et al. (1999) J. Clin. Invest. 104:1527-1537). The dose selection of rhIL-11 was based on the outcome of a clinical trial in subjects with Crohn's disease, where biological activity was observed. […] Upon enrollment, a psoriatic plaque was chosen for weekly assessment of lesion severity. […] In addition, before initiation of treatment, a 6-mm punch biopsy was taken from uninvolved skin at a location of the patent's choosing. Biopsies were equally divided for immunohistochemical analysis and for RNA preparation. Global clinical assessment of each subject was based on the Psoriasis Area and Severity Index (PASI) score in each subject before and during therapy as described previously (Gottlieb, et al. (1992) J. Invest. Dermatol. 98:302-309). The grading system used to measure local disease activity at the lesion biopsy site was the Psoriasis Severity Index (PSI). This index grades individual psoriasis lesions for scale, erythema, and induration on a 0- to 6- point scale for each parameter (0, absent, 1, trace, 2, mild, 3, mild to moderate, 4, moderate, 5, moderate to severe, and 6, severe). The final score is the sum of the individual parameters for a range of 0-18 (Fredriksson and Pettersson (1978) Dermatologica 157: 238-244; and Coven et al. (1997) Arch. Dermatol. 133:1514-1522). Histopathological assessment was performed on one-half of the 6-mm punch biopsy. […] Sections were reacted with antibodies to CD3, CD8, K16, Ki67, ICAM-1, or HLA-FR and processed for immunohistochemistry as described previously. Computer-assisted image analysis was used to quantify epidermal thickness and the number of CD3+, CD8+, or Ki67+ cells in tissue sections as described (Gottlieb et al. (1995) Nat. Med. 1:442-447).

[1] = tested on: proinflammatory cytokine production; settings: in part through inhibition of NF-κKB nuclear translocation; Trepicchio et al. (1997); cited from earlier work
[2] = tested on: S100A12, HBP17, K16, CCNF, SCYA2, PRKMK3, ID4, CST6 and TNXA mRNA; assay: Quantitative RT-PCR of early responding genes in treated patients; format: in vivo, human; settings: responding patients but not non-responding patients
Experimental: Quantitative RT-PCR was performed as previously described (Trepicchio et al., supra). RNA samples from patient biopsies were treated with 10U of RQ1 DNase I (Promega) for 30 minutes at 37° C. […] Sequence-specific amplification was detected as an increased fluorescent signal of 6-FAM during the amplification cycle. Quantitation of gene-specific message levels was based on a comparison of the fluorescent intensity in the unknown mRNA sample to the fluorescent intensity from a standard curve of known mRNA levels. […] Levels of gene-specific messages were graphed as normalized message units as determined from the standard curve. […]
Quantitative measures of gene expression changes were statistically evaluated using the JMP statistical discovery software package (SAS Institute, Inc., Cary, N.C.). […] Differences between non-lesional to lesional skin were analyzed using 2-tailed paired T-test. […]
Changes in gene expression levels that precede clinical improvement may identify genes that play a potential causative role in disease progression or may be early markers of clinical efficacy. Quantitative RT-PCR was used to analyze gene expression changes for these early responding genes in a larger patient population. […]

[3] = tested on: 165 genes differentially expressed between lesional and non-lesional skin; assay: Gene chip / self-organizing map analysis of lesional skin over the course of drug treatment (Example 4); format: in vivo, human
From the text: (§1) Patients with extensive plaque psoriasis (>10% body surface area affected) were considered eligible for entry into the study. […] At the start of enrollment, a psoriatic plaque was chosen for weekly assessment of lesion severity scores by the study coordinator. A 6 mm punch biopsy was taken of this lesional skin prior to rhIL-11 or cyclosporin treatment and at weeks 1, 4, 8 and 12 during IL-11 or cyclosporin treatment. In addition, prior to initiation of treatment, a 6 mm punch biopsy was taken from uninvolved skin at a location of the patient's choosing. Biopsies were equally divided for immunohistochemical analysis and for RNA preparation. Normal skin was obtained from healthy volunteers.
Total RNA was isolated from 6 mm full thickness skin biopsies using the RNeasy mini kit (Qiagen, Hilden, Germany). 2 μg total RNA was converted to cDNA by priming with an oligo-dT primer containing a T7 RNA polymerase promoter at the 5′ end. RNA was reverse transcribed with 200 units Superscript RT II at 50° C. for 1 hour in 1×first-strand buffer, 10 mM DTT and 0.5 mM each dNTP (Gibco BRL, Gaithersburg, Md.). […] RNA was concentrated and the amount measured using a spectrophotometer. […]

[4] = tested on: marker genes in psoriatic lesional skin; assay: GeneChip marker analysis of lesional skin biopsies during rhIL-11 or cyclosporin A treatment (Example 3); format: in vivo, human
Experimental: Labeled RNA was prepared from clones containing a T7 RNA polymerase promoter site by incorporating labeled ribonucleotides in an in vitro transcription (IVT) reaction. Either biotin-labeled or fluorescein-labeled UTP and CTP (1:3 labeled to unlabeled) plus unlabeled ATP and GTP were used for the reaction with 2500 U of T7 RNA polymerase. Following the reaction, unincorporated nucleotide triphosphates were removed using a size-selective membrane (Mircrocon-100, Amicon, Beverly, Mass.). The total molar concentration of RNA was based on a measurement of the absorbance at 260 nm. Following quantitation of RNA amounts, RNA was fragmented randomly to an average length of approximately 50 bases by heating at 94° C. in 40 mM Tris-acetate pH 8.1, 100 mM potassium acetate, 30 mM magnesium acetate, for 30 to 40 min. Fragmentation reduces possible interference from RNA secondary structure, and minimizes the effects of multiple interactions with closely spaced probe molecules. For material made directly from cellular RNA, cytoplasmic RNA was extracted from cells by the method of Favaloro et al. ((1980) Methods Enzymol. 65: 718-749), and poly (A) RNA was isolated with an oligo dT selection step (PolyAtract, Promega, Madison, Wis.). […] The total molar concentration of labeled cRNA was determined from the absorbance at 260 nm and assuming an average RNA size of 1000 ribonucleotides. […]
The hybridization solutions contained 0.9 M NaCl, 60 mM NaH2PO4, 6 mM EDTA, and 0.005% Triton X-100, adjusted to pH 7.6 (referred to as 6×SSPE-T). […] When biotin-labeled RNA was used, the hybridized RNA was stained with a streptavidin-phycoerythrin conjugate (Molecular Probes, Eugene, Oreg.) prior to reading. […] The arrays were read using a scanning confocal microscope made for Affy metrix by Molecular Dynamics (commercially available through Affymetrix, Santa Clara, Calif.) The scanner uses an argon ion laser as the excitation source, with the emission detected by a photomultiplier tube through either a 530 nm bandpass filter (fluorescein), or a 560 nm longpass filter (phycoerythrin). […]

plaque psoriasis = assay: Response to therapy by clinical and histopathological criteria (Example 4); format: in vivo, human; settings: treated for 8 weeks
From the text: as §1
Sections were reacted with antibodies to CD3, CD8, keratin 16, Ki67, ICAM-1, or HLA-DR and processed for immunohistochemistry as previously described (Trepicchio et al., supra). Computer-assisted image analysis was used to quantify epidermal thickness and the number of CD3+, CD8+, or Ki67+ cells in tissue sections as described. The grading system used to measure clinical disease activity was the PSI score, described above.
RhIL-11 was administered to patients by a subcutaneous route at either a dose of 5 ug/kg/day or a single 1 mg or 2 mg dose administered once weekly. Cyclopsorin A was administered at a dose of 5 μg/kg/day (Gottlieb et al., supra).

B1: rhIL-11: recombinant human IL-11, experimental immune modulatory cytokine (protein, UniProt P20809 22-199, looked up)
Interleukin-11: PGPPPGPPRVSPDPRAELDSTVLLTRSLLADTRQLAAQLRDKFPADGDHNLDSLPTLAMSAGALGALQLPGVLTRLRADLLSYLRHVQWLRRAGGSSLKTLEPELGTLQARLDRLLRRLQLLMSRLALPQPPPDPPAPPLAPPSSAWGGIRAAHAILGGLHLTLDWAVRGLLLLKTRL
activity in psoriasis patients (psoriasis patients): improve clinical and histopathological scores | response to the treatment as assessed by PSI scores (psoriatic plaque; Patient #202, rhIL-11): did not respond to the treatment | PSI scores (psoriatic plaque; Patient #202, rhIL-11 treatment, throughout the course of the study): 9-11 | PSI score (psoriatic plaque; rhIL-11, first value of 'respectively' (Patient #203)): 4 | PSI score (psoriatic plaque; rhIL-11, second value of 'respectively' (Patient #208)): 5 | proinflammatory cytokine production [1]: reduce proinflammatory cytokine production | earliest time at which changes in gene expression were observed [2]: 1 week | differentially regulated genes that returned to normal or uninvolved levels at time points preceding clinical improvement ([3]; FIG. 6, Group I): 36 genes | levels of expression of 36 genes including HBP17, SCYA2, PRKMK3, GNA15, PHB and MTX ([3]; responding patients at week 1 of therapy, not in non-responding patients): change significantly | expression levels of the bulk of the markers ([4]; Patient #202, rhIL-11, throughout the study): similarly unchanged | expression of the preponderance of the markers ([4]; Patients #203 and 208, rhIL-11, by week 8 compared to the beginning of the study): decrease in expression at least two-fold | expression of the markers ([4]; Patients #203 and 208, rhIL-11, by week 12 compared to the beginning of the study): nearly all of the markers decreased in expression | patients considered to have responded to therapy (plaque psoriasis): 8 out of 15
